Measured values reported in PMC7302350.

Biological target: DOT1L (1-416), recombinant (Homo sapiens) (UniProt Q8TEK3)
Test: EMSA
Details: EMSA: 10 mM HEPES pH 7.3, 20 mM KCl, 1 mM MgCl2, 1 mM DTT, 5% glycerol, 100 ug/mL tRNA, room temperature 30 min; pull-down: Pierce Magnetic RNA-Protein …

Sequence of UniProt Q8TEK3 (Q8TEK3 1-416): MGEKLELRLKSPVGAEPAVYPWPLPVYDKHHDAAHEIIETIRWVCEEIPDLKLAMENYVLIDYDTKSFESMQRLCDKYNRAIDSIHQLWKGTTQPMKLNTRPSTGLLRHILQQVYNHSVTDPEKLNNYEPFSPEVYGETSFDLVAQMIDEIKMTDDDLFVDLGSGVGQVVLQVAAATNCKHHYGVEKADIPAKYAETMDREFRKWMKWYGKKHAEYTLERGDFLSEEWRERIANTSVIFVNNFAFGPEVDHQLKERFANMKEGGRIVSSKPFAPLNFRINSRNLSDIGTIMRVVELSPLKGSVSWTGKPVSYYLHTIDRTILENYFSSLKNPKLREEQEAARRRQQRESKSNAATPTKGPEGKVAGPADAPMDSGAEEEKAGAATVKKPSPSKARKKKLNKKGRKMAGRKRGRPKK

Sequence: GGGACAUUCGAGCAGCUGCUCUGGAGAAACAGCAGGAUCUACGGAAGUUUGUACCCACCGCCUCGCCUGCAGCCUCGGGAGUCUCAACCCAAGCCGGCCCGGCCUUGUAGCCCAGAGCAGCAAAGCCACAGCAGGCAACGCGAGCUAACGCGGGUCGCGCGGAGGUCGGGAGCCCAGGCGGCGGAGGCGGCGGCGGCGCAGUUAUUCCCGGGUGACUCUGGGGACUCGUGCAGAUGGGGGACGCCUCCGGCCACGCACUUGGAGCCA [LAMP5-AS1 503-764]
- binding: binds
